Data reported in IntAct's records for PubMed 23624502.

B1: Ras-related protein Rab-39B (Mus musculus), Q8BHC1 (parent)
chain: MEAIWLYQFRLIVIGDSTVGKSCLIRRFTEGRFAQVSDPTVGVDFFSRLVEIEPGKRIKLQIWDTAGQERFRSITRAYYRNSVGGLLLFDITNRRSFQNVHEWLEETKVHVQPYQIVFVLVGHKCDLDTQRQVTRHEAEKLAAAYGMKYIETSARDAINVEKAFTDLTRDIYELVKRGEITIQEGWEGVKSGFVPNVVHSSEEVIKSERRCLC
partner: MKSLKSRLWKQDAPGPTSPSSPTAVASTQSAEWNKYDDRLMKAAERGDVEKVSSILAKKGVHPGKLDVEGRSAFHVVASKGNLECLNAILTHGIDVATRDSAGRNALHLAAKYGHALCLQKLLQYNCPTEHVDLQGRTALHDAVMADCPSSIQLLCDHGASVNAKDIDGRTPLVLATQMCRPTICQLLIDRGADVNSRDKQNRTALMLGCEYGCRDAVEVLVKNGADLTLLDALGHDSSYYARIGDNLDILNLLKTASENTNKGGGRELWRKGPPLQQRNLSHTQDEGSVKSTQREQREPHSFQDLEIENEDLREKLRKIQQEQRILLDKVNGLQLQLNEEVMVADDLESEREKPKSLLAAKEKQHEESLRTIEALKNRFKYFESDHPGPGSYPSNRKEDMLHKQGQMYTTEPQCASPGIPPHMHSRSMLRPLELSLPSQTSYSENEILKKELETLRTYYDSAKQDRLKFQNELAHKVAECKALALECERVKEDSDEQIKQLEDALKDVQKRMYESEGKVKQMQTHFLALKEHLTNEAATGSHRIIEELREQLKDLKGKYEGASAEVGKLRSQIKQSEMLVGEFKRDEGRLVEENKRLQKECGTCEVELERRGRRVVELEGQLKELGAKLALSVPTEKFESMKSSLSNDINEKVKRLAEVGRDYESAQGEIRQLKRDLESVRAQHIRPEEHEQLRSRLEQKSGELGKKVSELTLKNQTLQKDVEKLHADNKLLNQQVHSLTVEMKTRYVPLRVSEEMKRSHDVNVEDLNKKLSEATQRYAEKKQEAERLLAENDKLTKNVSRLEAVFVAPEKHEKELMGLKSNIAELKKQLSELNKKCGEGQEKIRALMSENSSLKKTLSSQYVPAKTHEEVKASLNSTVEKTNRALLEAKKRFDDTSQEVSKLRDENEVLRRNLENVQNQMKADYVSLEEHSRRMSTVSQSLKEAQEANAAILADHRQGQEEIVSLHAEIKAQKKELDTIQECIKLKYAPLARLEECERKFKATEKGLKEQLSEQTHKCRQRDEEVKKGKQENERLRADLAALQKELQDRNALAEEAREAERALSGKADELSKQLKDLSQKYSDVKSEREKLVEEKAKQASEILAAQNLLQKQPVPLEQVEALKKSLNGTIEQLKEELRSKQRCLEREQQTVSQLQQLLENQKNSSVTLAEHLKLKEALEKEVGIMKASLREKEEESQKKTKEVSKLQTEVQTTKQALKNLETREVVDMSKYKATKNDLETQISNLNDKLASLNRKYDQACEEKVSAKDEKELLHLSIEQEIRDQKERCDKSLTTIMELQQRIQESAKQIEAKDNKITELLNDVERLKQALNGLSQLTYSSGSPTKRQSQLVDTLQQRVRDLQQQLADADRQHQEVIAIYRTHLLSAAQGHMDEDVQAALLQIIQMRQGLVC
B2: Ras-related protein Rab-39A (Mus musculus), Q8BHD0 (parent)
chain: METIWIYQFRLIVIGDSTVGKSCLLHRFTQGRFPGLHSPACDPTVGVDFFSRLLEIEPGKRIKLQLWDTAGQERFRSITRSYYRNSVGGFLVFDITNRRSFEHVKDWLEEAKMHVQPFQIVFLLVGHKCDLASQRQVSREEAERLSTDCGMKYIETSAKDATNVEESFTILTRDIYELIKKGEICIQDGWEGVKSGFVPNTVHSSEEAVKPRKECFC
partner: B1 partner

Assays:
Settings in all cases: with Uaca
[1] = variants of: B1
[2] = variants of: B1; remark: listed apart in the source
[3] = variants of: B2; remark: listed apart in the source
[4] = variants of: B2; remark: listed apart in the source

effect of a mutation on the interaction [1] | effect of a mutation on the interaction [2] | effect of a mutation on the interaction [3] | effect of a mutation on the interaction [4] | Variant
disrupting interaction | decreasing interaction | – | – | S22N
– | – | disrupting interaction | decreasing interaction | S22N
